How the values were obtained:
[1] = cited from earlier work
[2] = maximum solubility of RebM in fermentation broth; assay type: physicochemical
Procedure: Fermentation broth was held at a constant temperature of 70° C. and subjected to different treatments as described in Table 7. RebM was slowly added with constant stirring to determine the maximum solubility of RebM.

[3] = test system: mogrol; test: primary glycosylation at C3 and C24 hydroxyls of mogrol by cells expressing UGT enzymes; assay type: cell-based, E. coli; details: mogrol fed; 37° C., 48 hrs; LCMS/MS
Procedure: Specifically, mogrol was fed to cells expressing various UGT enzymes. Reactions were incubated at 37° C. for 48 hrs. Products were quantified by LCMS/MS with authentic standards of each compound.

[4] = test system: mogrol; test: bioconversion of mogrol into mogroside intermediates; assay type: cell-based, E. coli; details: 96-well plates, 48 hours, in excess of empty vector control; FIG. 17A
Procedure: The engineered bacterial strains described herein can be used for the glycosylation of a variety of substrates, including but not limited to terpenoid glycosides. In some aspects, the invention identifies UGT enzymes that are active on the mogrol or mogroside scaffolds. FIGS. 17A and B show the bioconversion of mogrol into mogroside intermediates. Engineered E. coli strains (chassis strain) expressing UGT enzymes were incubated in 96-well plates with mogrol. Product formation was examined after 48 hours. Reported values are those in excess of the empty vector control. Products were measured on LC-MS/MS with authentic standards. […] IE and/or Mog. IIE formed.

[5] = test system: Mog. IE; test: bioconversion of Mog. IE into Mog. IIE; assay type: cell-based, E. coli; details: 96-well plates, 37° C., 48 hours; FIG. 18B
Procedure: (§1) IE (FIG. 18B) into Mog. IIE. In the experiment, engineered E. coli chassis strains expressing UGT enzymes, SEQ ID NO: 84, SEQ ID NO: 71, or SEQ ID NO: 33 were incubated in fermentation media containing Mog. IA (FIG. 18A) or Mog. IE (FIG. 18B) in 96-well plates at 37° C. Product formation was examined after 48 hours. Products were measured on LC-MS/MS with authentic standards. The values of Mog. IIE levels in excess of the empty vector control were calculated. […] IE into Mog. IIE.

[6] = test system: Mog. IA; test: bioconversion of Mog. IA into Mog. IIE; assay type: cell-based, E. coli; details: 96-well plates, 37° C., 48 hours; FIG. 18A
Procedure: as §1

[7] = test system: Mog. IIE or Mog. IE; test: branched glycosylation reactions by cells expressing UGT enzymes; assay type: cell-based, E. coli; details: Mog. IIE or Mog. IE fed; 37° C., 48 hr; LC-MS/MS
Procedure: Mog. IIE or Mog. IE was fed to cells expressing various UGT enzymes. Reactions were incubated at 37° C. for 48 hr. Products were quantified by LC-MS/MS with authentic standards of each compound. “Indirect” evidence means that consumption of substrate was observed.

[8] = test system: Mog. I-E; test: production of Mog. II-A2 from Mog. I-E; assay type: cell-based, E. coli; details: 37° C., 48 hr; FIG. 20
Procedure: II-A2. Mog. I-E was fed in vitro. In the experiment, engineered E. coli strains (chassis strain) expressing UGT enzyme SEQ ID NO: 73 were incubated at 37° C. for 48 hr. Products were quantified by LC-MS/MS with authentic standards of each compound. […] IE to Mog. II-A2.

| Molecule | C3 O-Glucosylation [3] | C24 O-Glucosylation [3] | product formation from mogrol [4] | bioconversion of Mog. IE into Mog. IIE [5] | bioconversion of Mog.IA into Mog.IIE [6] | further results |
| --- | --- | --- | --- | --- | --- | --- |
| C=C1C[C@@]23CC[C@H]4[C@@](C)(CCC[C@@]4(C)C(=O)O[C@@H]4O[C@H](CO)[C@@H](O)[C@H](O[C@@H]5O[C@H](CO)[C@@H](O)[C@H](O)[C@H]5O)[C@H]4O[C@@H]4O[C@H](CO)[C@@H](O)[C@H](O)[C@H]4O)[C@@H]2CC[C@]1(O[C@@H]1O[C@H](CO)[C@@H](O)[C@H](O[C@@H]2O[C@H](CO)[C@@H](O)[C@H](O)[C@H]2O)[C@H]1O[C@@H]1O[C@H](CO)[C@@H](O)[C@H](O)[C@H]1O)C3 [RebM, rebaudioside M] |  |  |  |  |  | times more potent than sucrose ([1]; estimated, Prakash et al. 2014): 200-350 times; RebM solubility ([2]; pH 3.5, 70.8 ° C., no small molecule enhancer): 68.9 mg/mL; RebM solubility ([2]; pH 7, 70.8 ° C., Glycerol 0.5 wt %): 119.0 mg/mL; RebM solubility ([2]; pH 7, 70.8 ° C., no small molecule enhancer): 29.9 mg/mL; RebM solubility ([2]; pH 11.6, 70.8 ° C., 1,3-Propanediol 0.5 wt %): 151.3 mg/mL; RebM solubility ([2]; pH 11.6, 70.8 ° C., Glycerol 0.5 wt %): 151.3 mg/mL |
| C[C@H](CC[C@@H](O[C@@H]1O[C@H](CO[C@@H]2O[C@H](CO)[C@@H](O)[C@H](O)[C@H]2O)[C@@H](O)[C@H](O)[C@H]1O[C@@H]1O[C@H](CO)[C@@H](O)[C@H](O)[C@H]1O)C(C)(C)O)[C@H]1CC[C@@]2(C)[C@@H]3CC=C4[C@@H](CC[C@H](O[C@@H]5O[C@H](CO[C@@H]6O[C@H](CO)[C@@H](O)[C@H](O)[C@H]6O)[C@@H](O)[C@H](O)[C@H]5O)C4(C)C)[C@]3(C)[C@H](O)C[C@]12C [mogroside V] |  |  |  |  |  | sweetening capacity, times that of sucrose ([1]; Kasai et al. 1989): ~ 250 times |
| SEQ ID NO: 71: AtUGT73C3 (Arabidopsis thaliana) (protein, listed as Arabidopsis thaliana) MATEKTHQFHPSLHFVLFPFMAQGHMIPMIDIARLLAQRGVTITIVTTPHNAARFKNVLNRAIESGLAINILHVKFPYQEFGLPEGKENIDSLDSTELMVPFFKAVNLLEDPVMKLMEEMKPRPSCLISDWCLPYTSIIAKNFNIPKIVFHGMGCFNLLCMHVLRRNLEILENVKSDEEYFLVPSFPDRVEFTKLQLPVKANASGDWKEIMDEMVKAEYTSYGVIVNTFQELEPPYVKDYKEAMDGKVWSIGPVSLCNKAGADKAERGSKAAIDQDECLQWLDSKEEGSVLYVCLGSICNLPLSQLKELGLGLEESRRSFIWVIRGSEKYKELFEWMLESGFEERIKERGLLIKGWAPQVLILSHPSVGGFLTHCGWNSTLEGITSGIPLITWPLFGDQFCNQKLVVQVLKAGVSAGVEEVMKWGEEDKIGVLVDKEGVKKAVEELMGDSDDAKERRRRVKELGELAHKAVEKGGSSHSNITLLLQDIMQLAQFKN | Yes | Yes | largely produced Mog.IA from mogrol | able to catalyze the bioconversion of Mog. IE into Mog. IIE | able to catalyze bioconversion of Mog.IA into Mog.IIE |  |
| SEQ ID NO: 33: SgUGT720-269-1 (Siraitia grosvenorii) (protein) MEDRNAMDMSRIKYRPQPLRPASMVQPRVLLFPFPALGHVKPFLSLAELLSDAGIDVVFLSTEYNHRRISNTEALASRFPTLHFETIPDGLPPNESRALADGPLYFSMREGTKPRFRQLIQSLNDGRWPITCIITDIMLSSPIEVAEEFGIPVIAFCPCSARYLSIHFFIPKLVEEGQIPYADDDPIGEIQGVPLFEGLLRRNHLPGSWSDKSADISFSHGLINQTLAAGRASALILNTFDELEAPFLTHLSSIFNKIYTIGPLHALSKSRLGDSSSSASALSGFWKEDRACMSWLDCQPPRSVVFVSFGSTMKMKADELREFWYGLVSSGKPFLCVLRSDVVSGGEAAELIEQMAEEEGAGGKLGMVVEWAAQEKVLSHPAVGGFLTHCGWNSTVESIAAGVPMMCWPILGDQPSNATWIDRVWKIGVERNNREWDRLTVEKMVRALMEGQKRVEIQRSMEKLSKLANEKVVRGINLHPTISLKKDTPTTSEHPRHEFENMRGMNYEMLVGNAIKSPTLTKK | Yes | Yes | largely produced Mog.IA from mogrol | able to catalyze the bioconversion of Mog. IE into Mog. IIE |  |  |
| SEQ ID NO: 84: UGT85C1 (Stevia rebaudiana) (protein, listed as Stevia rebaudiana) MDQMAKIDEKKPHVVFIPFPAQSHIKCMLKLARILHQKGLYITFINTDTNHERLVASGGTQWLENAPGFWFKTVPDGFGSAKDDGVKPTDALRELMDYLKTNFFDLFLDLVLKLEVPATCIICDGCMTFANTIRAAEKLNIPVILFWTMAACGFMAFYQAKVLKEKEIVPVKDETYLTNGYLDMEIDWIPGMKRIRLRDLPEFILATKQNYFAFEFLFETAQLADKVSHMIIHTFEELEASLVSEIKSIFPNVYTIGPLQLLLNKITQKETNNDSYSLWKEEPECVEWLNSKEPNSVVYVNFGSLAVMSLQDLVEFGWGLVNSNHYFLWIIRANLIDGKPAVMPQELKEAMNEKGFVGSWCSQEEVLNHPAVGGFLTHCGWGSIIESLSAGVPMLGWPSIGDQRANCRQMCKEWEVGMEIGKNVKRDEVEKLVRMLMEGLEGERMRKKALEWKKSATLATCCNGSSSLDVEKLANEIKKLSRN | Yes | Yes |  | able to catalyze the bioconversion of Mog. IE into Mog. IIE | able to catalyze bioconversion of Mog.IA into Mog.IIE |  |
| SEQ ID NO: 73: HvUGT_B3 (Hordeum vulgare subsp. Vulgare) (protein, Hordeum vulgare) MAEANDGGKMHVVMLPWLAFGHVLPFTEFAKRVARQGHRVTLLSAPRNTRRLIDIPPGLAGLIRVVHVPLPRVDGLPEHAEATIDLPSDHLRPCLRRAFDAAFERELSRLLQEEAKPDWVLVDYASYWAPTAAARHGVPCAFLSLFGAAALSFFGTPETLLGIGRHAKTEPAHLTVVPEYVPFPTTVAYRGYEARELFEPGMVPDDSGVSEGYRFAKTIEGCQLVGIRSSSEFEPEWLRLLGELYRKPVIPVGLFPPAPQDDVAGHEATLRWLDGQAPSSVVYAAFGSEVKLTGAQLQRIALGLEASGLPFIWAFRAPTSTETGAASGGLPEGFEERLAGRGVVCRGWVPQVKFLAHASVGGFLTHAGWNSIAEGLAHGVRLVLLPLVFEQGLNARNIVDKNIGVEVARDEQDGSFAAGDIAAALRRVMVEDEGEGFGAKVKELAKVFGDDEVNDQCVREFLMHLSDHSKKNQGQD |  |  |  |  |  | C3 1-2 [7]: No; C3 1-6 [7]: Yes; C24 1-2 [7]: No; C24 1-6 [7]: Yes; bioconversion of Mog. IE to Mog. II-A2 [8]: able to catalyze bioconversion of Mog. IE to Mog. II-A2 |

— US20260242839A1, “GLYCOSIDE PRODUCT BIOSYNTHESIS AND RECOVERY” (Manus Bio Inc., priority 2023, published 2026)
